Results taken from patent EP4289863A9 (Shanghai Huaota Biopharmaceutical Co., Ltd., dated 2024).
Positions count from the first letter of the chain named. In names and notes the source's numbering stands. Blank lines part the entries; values can stand above or below the binder they belong to.

Key:
human IL-36R [1] = molecular target: T1, human IL-36R (human, UniProt Q9HB29 20-575); experiment: cell-based or functional assay
T1 sequence (looked up): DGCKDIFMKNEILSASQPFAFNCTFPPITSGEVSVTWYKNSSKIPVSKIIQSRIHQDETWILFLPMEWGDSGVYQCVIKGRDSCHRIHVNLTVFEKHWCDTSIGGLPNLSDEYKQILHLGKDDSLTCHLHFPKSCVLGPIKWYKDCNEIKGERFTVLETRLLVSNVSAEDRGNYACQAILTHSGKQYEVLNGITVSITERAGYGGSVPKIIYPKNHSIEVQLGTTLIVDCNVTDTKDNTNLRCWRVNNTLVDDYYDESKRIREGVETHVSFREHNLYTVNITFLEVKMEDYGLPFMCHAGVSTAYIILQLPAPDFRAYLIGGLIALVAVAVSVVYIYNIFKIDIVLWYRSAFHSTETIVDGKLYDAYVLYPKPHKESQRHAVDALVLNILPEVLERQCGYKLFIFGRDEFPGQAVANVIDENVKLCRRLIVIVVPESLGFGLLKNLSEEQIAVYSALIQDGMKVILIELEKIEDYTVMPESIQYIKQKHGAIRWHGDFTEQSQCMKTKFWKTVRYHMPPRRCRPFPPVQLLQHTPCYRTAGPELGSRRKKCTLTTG

human IL-36R [2] = molecular target: T1, human IL-36R; experiment: cell-based or functional assay; remark: listed apart in the source
[3] = molecular target: T2, IL36R (analyte of Table 17) (Homo sapiens (Human), UniProt Q9HB29 20-335); experiment: SPR Biacore 8K, antibody captured on anti-human chip, antigen as analyte, 1:1 model
T2 sequence: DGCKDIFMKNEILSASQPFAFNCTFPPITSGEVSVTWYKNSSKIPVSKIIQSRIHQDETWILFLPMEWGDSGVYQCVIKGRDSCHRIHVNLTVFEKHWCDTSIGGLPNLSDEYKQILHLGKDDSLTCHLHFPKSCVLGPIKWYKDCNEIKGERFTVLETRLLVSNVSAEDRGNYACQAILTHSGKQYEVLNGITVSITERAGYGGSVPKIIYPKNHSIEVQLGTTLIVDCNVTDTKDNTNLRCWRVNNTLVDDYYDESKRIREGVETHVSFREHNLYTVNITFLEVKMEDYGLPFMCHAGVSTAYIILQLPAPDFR

human IL-36R [4] = molecular target: T1, human IL-36R; experiment: flow cytometry on CHO-K1-huIL-36R-5E10/2F10 cells
human IL-36R [5] = molecular target: T1, human IL-36R; experiment: cell-based or functional assay; remark: listed apart in the source
[6] = molecular target: T3, His-tagged human IL-1 Rrp2/IL-1R6 protein (human, UniProt Q9HB29 20-335, limits assumed); experiment: SPR Biacore 8K, His-tagged antigen captured by anti-His antibody, antibody as analyte, 1:1 model
T3 construct: Bought protein; also called His-tagged human IL-1 Rrp2/IL-IR6 protein; not shown: His tag
T3 sequence (looked up): T2 sequence

human IL-36R [7] = molecular target: T1, human IL-36R; experiment: flow cytometry on CHO-K1 cells expressing human IL-36R
human IL-36R [8] = molecular target: T1, human IL-36R; experiment: cell-based or functional assay; remark: listed apart in the source
human IL-36R [9] = molecular target: T1, human IL-36R; experiment: cell-based or functional assay; remark: listed apart in the source
monkey IL-36R = molecular target: T4, monkey IL-36R (monkey); experiment: flow cytometry on CHO-K1 cells expressing monkey IL-36R
T4 construct: whole, on cells

human IL-36R [10] = molecular target: T1, human IL-36R; experiment: cell-based or functional assay; remark: listed apart in the source

- HuIL-6 detected in HIF under IL-36β stimulation IC50 (human IL-36R [1]): 0.0546 mg/L
- EC50 of inhibition of IL-6 content, NCI/ADR-RES cells stimulated with IL-36β (human IL-36R [2]): 0.069 nM
- Kd [3]: 0.141 nM
- koff [3]: 0.00015 s⁻¹
- kon [3]: 1.07e+06 M⁻¹ s⁻¹
- EC50 (human IL-36R [4]): 0.32 nM
- HuIL-6 detected in NCI/ADR-RES under IL-36β stimulation IC50 (human IL-36R [5]): 0.00887 mg/L
- Kd [6]: 0.0452 nM
- koff [6]: 4.37e-05 s⁻¹
- kon [6]: 967000 M⁻¹ s⁻¹
- EC50 (human IL-36R [7]): 0.062 mg/L
- IC50 of GM-CSF release, NCI/ADR-RES cells stimulated with IL-36α (human IL-36R [8]): 0.022 mg/L
- IC50 of GM-CSF release, NCI/ADR-RES cells stimulated with IL-36β (human IL-36R [8]): 0.0174 mg/L
- IC50 of GM-CSF release, NCI/ADR-RES cells stimulated with IL-36γ (human IL-36R [8]): 0.0198 mg/L
- IC50 of IL-6 release, NCI/ADR-RES cells stimulated with IL-36α (human IL-36R [8]): 0.015 mg/L
- IC50 of IL-6 release, NCI/ADR-RES cells stimulated with IL-36β (human IL-36R [8]): 0.0139 mg/L
- IC50 of IL-6 release, NCI/ADR-RES cells stimulated with IL-36γ (human IL-36R [8]): 0.0162 mg/L
- IC50 of IL-8 release, NCI/ADR-RES cells stimulated with IL-36α (human IL-36R [8]): 0.0315 mg/L
- IC50 of IL-8 release, NCI/ADR-RES cells stimulated with IL-36β (human IL-36R [8]): 0.0223 mg/L
- IC50 of IL-8 release, NCI/ADR-RES cells stimulated with IL-36γ (human IL-36R [8]): 0.0198 mg/L
- IC50 of pNF-κB, NCI/ADR-RES cells stimulated with IL-36β (human IL-36R [8]): 71.4 ng/mL
- pNFκB detected in HIF under IL-36β stimulation IC50 (human IL-36R [9]): 0.105 µg/mL
- EC50 (monkey IL-36R): 0.0595 mg/L
- HuIL-6 detected in HIF under IL-36α stimulation IC50 (human IL-36R [10]): 0.0479 mg/L
B1: humanized anti-IL-36R antibody 900527 (antibody, V domains shown)
VH: QVQLVQSGAEVKKPGASVKVSCKASGYTFTSSWMHWAKQAPGQGLEWIGEIHPNSAKTNYNQKFQGRVTMTRDTSISTAYMELSRLRSDDTAVYYCARVDYGKPWFAYWGQGTLVTVSS
VL: QIVLTQSPGTLSLSPGERATLSCRASSSVSSSYLHWYQQKPGQAPRLWIYSTSSRATGIPDRFSGSGSGTDFTLTISRLEPEDFATYYCQQFQSSPLTFGQGTKLEIK
notes: IgG1 (vector with L234A, L235A) and human kappa

- Kd [6]: 0.0148 nM
- koff [6]: 1.34e-05 s⁻¹
- kon [6]: 904000 M⁻¹ s⁻¹
- IC50 of GM-CSF release, NCI/ADR-RES cells stimulated with IL-36α (human IL-36R [8]): 0.0206 mg/L
- IC50 of GM-CSF release, NCI/ADR-RES cells stimulated with IL-36β (human IL-36R [8]): 0.0184 mg/L
- IC50 of GM-CSF release, NCI/ADR-RES cells stimulated with IL-36γ (human IL-36R [8]): 0.0179 mg/L
- IC50 of IL-6 release, NCI/ADR-RES cells stimulated with IL-36α (human IL-36R [8]): 0.0124 mg/L
- IC50 of IL-6 release, NCI/ADR-RES cells stimulated with IL-36β (human IL-36R [8]): 0.0223 mg/L
- IC50 of IL-6 release, NCI/ADR-RES cells stimulated with IL-36γ (human IL-36R [8]): 0.0121 mg/L
- IC50 of IL-8 release, NCI/ADR-RES cells stimulated with IL-36α (human IL-36R [8]): 0.0398 mg/L
- IC50 of IL-8 release, NCI/ADR-RES cells stimulated with IL-36β (human IL-36R [8]): 0.0221 mg/L
- IC50 of IL-8 release, NCI/ADR-RES cells stimulated with IL-36γ (human IL-36R [8]): 0.018 mg/L
- IC50 of pNF-κB, NCI/ADR-RES cells stimulated with IL-36β (human IL-36R [8]): 105 ng/mL
B2: humanized anti-IL-36R antibody 900513 (antibody, V domains shown)
VH: B1 VH
VL: B1 VL with Q1E, R24S, S54N
notes: as for B1

- Kd [6]: 0.0579 nM
- koff [6]: 5.1e-05 s⁻¹
- kon [6]: 881000 M⁻¹ s⁻¹
- IC50 of GM-CSF release, NCI/ADR-RES cells stimulated with IL-36α (human IL-36R [8]): 0.0202 mg/L
- IC50 of GM-CSF release, NCI/ADR-RES cells stimulated with IL-36β (human IL-36R [8]): 0.0186 mg/L
- IC50 of GM-CSF release, NCI/ADR-RES cells stimulated with IL-36γ (human IL-36R [8]): 0.021 mg/L
- IC50 of IL-6 release, NCI/ADR-RES cells stimulated with IL-36α (human IL-36R [8]): 0.0216 mg/L
- IC50 of IL-6 release, NCI/ADR-RES cells stimulated with IL-36β (human IL-36R [8]): 0.0168 mg/L
- IC50 of IL-6 release, NCI/ADR-RES cells stimulated with IL-36γ (human IL-36R [8]): 0.0176 mg/L
- IC50 of IL-8 release, NCI/ADR-RES cells stimulated with IL-36α (human IL-36R [8]): 0.0304 mg/L
- IC50 of IL-8 release, NCI/ADR-RES cells stimulated with IL-36β (human IL-36R [8]): 0.022 mg/L
- IC50 of IL-8 release, NCI/ADR-RES cells stimulated with IL-36γ (human IL-36R [8]): 0.018 mg/L
- IC50 of pNF-κB, NCI/ADR-RES cells stimulated with IL-36β (human IL-36R [8]): 64.9 ng/mL
B3: humanized anti-IL-36R antibody 900534 (antibody, V domains shown)
VH: B1 VH
VL: B1 VL with W48L
notes: as for B1
